Molecular target: α5 integrin (endogenous) (mouse) (UniProt P11688)
Assay: cell-based or functional assay

Chain of α5 integrin (endogenous) (mouse) (P11688 45-1053): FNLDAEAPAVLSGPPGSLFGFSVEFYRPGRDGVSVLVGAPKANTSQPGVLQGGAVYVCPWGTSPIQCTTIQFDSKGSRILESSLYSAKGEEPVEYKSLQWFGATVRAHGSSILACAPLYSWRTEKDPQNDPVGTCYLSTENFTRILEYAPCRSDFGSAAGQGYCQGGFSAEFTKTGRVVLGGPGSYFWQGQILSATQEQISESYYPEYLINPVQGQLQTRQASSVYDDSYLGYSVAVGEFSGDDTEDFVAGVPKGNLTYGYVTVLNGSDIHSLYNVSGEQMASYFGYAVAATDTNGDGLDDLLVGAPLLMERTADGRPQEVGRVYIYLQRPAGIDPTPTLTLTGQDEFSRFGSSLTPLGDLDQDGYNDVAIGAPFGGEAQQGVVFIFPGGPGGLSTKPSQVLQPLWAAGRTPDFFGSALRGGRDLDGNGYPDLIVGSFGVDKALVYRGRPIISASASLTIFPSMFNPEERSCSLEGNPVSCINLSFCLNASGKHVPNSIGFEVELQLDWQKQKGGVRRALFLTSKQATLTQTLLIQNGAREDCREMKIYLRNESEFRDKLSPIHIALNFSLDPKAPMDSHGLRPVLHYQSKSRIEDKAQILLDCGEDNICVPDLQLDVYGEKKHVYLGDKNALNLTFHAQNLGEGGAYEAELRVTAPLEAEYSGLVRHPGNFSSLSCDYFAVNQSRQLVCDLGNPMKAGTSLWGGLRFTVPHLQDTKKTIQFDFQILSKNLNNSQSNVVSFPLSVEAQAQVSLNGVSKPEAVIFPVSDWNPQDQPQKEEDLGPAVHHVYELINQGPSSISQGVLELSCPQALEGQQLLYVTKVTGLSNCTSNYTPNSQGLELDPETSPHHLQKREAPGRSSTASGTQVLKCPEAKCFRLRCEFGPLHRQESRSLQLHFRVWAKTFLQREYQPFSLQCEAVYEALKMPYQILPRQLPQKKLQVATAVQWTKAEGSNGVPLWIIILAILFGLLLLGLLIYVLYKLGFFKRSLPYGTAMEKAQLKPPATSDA

t1/2 of fluorescence recovery (FRAP) in nascent, peripheral adhesions, cells plated for 30 minutes on FN: 18.9 s
Substance: GFP-Mena (from UniProt Q03173 1-802)

— patent US20150079113A1
